Measurements taken from publication PMC6934807, “Development of hypoallergenic variants of the major horse allergen Equ c 1 for immunotherapy by rational structure based engineering” (Scientific Reports, 2019).
Changes are numbered by the printed parent chain. Names may count otherwise.

T1: recombinant Equ c 1 wild type (Equ c 1.0101) (horse)
T1 chain: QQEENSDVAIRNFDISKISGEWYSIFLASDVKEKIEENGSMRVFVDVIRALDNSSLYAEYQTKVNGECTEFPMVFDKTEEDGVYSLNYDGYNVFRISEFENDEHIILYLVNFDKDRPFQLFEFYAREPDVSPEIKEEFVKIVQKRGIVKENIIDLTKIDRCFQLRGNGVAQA

B1: Equ c 1 Triple 2 (V47K + V110E + F112K) (natural protein)
chain: T1 chain with V47K, V110E, F112K
B2: recombinant Equ c 1 wild type (Equ c 1.0101) (natural protein)
chain: T1 chain
modifications: extra vector-derived N-terminal Ala left out; disulfide Cys68-Cys161 (mature numbering, precursor = +15); homodimer at micromolar concentration (Kd 15.6 nM) / extra vector-derived N-terminal Ala left
B3: Equ c 1 Triple 3 (E21Y + V110E + F112K) (natural protein)
chain: T1 chain with E21Y, V110E, F112K

Tests used:
[1] = target: the molecule itself; test: cell-based or functional assay
[2] = target: T1, recombinant Equ c 1 wild type (Equ c …); test: native MS; native ESI FT-ICR MS, dilution series 0.1-4.8 µM (monomer) in 10 mM ammonium acetate, diluted samples kept four days at +4 °C, five parallel spectra per concentration; Kd from monomer and dimer ion intensities; dimer to monomers; conditions: both partners purified
[3] = target: T1, recombinant Equ c 1 wild type (Equ c …); test: SEC; SE-UHPLC, Acquity BEH125 SEC column, PBS (12 mM Na2HPO4, 3 mM NaH2PO4, 150 mM NaCl, pH 7.3), 2 µl of a 40 µM protein solution injected, compared with protein standards; conditions: both partners purified
[4] = target: the molecule itself; test: native MS; native ESI FT-ICR MS at 40 µM protein, 10 mM ammonium acetate pH 6.9; Kd of Triple 3 estimated from monomer and dimer intensities at this single concentration; dimer to monomers

Binder | EC50 of histamine release from stripped basophils passively sensitised with serum A of a horse allergic person [1] | EC50 of histamine release from stripped basophils passively sensitised with serum B of a horse allergic person [1] | EC50 of histamine release from stripped basophils passively sensitised with serum C of a horse allergic person [1] | EC50 of histamine release from stripped basophils passively sensitised with serum D of a horse allergic person [1] | EC50 of histamine release from stripped basophils passively sensitised with serum E of a horse allergic person [1] | EC50 of histamine release from stripped basophils passively sensitised with serum F (RefLab's positive control serum) [1] | EC50 of histamine release from stripped basophils, median of the six sera [1] | Kd [2] | stoichiometry N [3] | Kd [4]
B1 | 0.11 nM | 0.24 nM | 0.22 nM | 0.18 nM | 0.84 nM | 0.72 nM | 0.23 nM |  |  | 
B2 |  |  |  |  |  |  |  | 15.6 ± 0.8 nM | 2 | 
B3 | 0.29 nM | 0.42 nM | 0.52 nM | 0.26 nM | 3.7 nM | 1.1 nM | 0.47 nM |  |  | ~800000 nM
